In patent US4978608:
Read-outs that look alike come from different tables or passages of the source.

What was measured:
[1] = test system: single-stranded DNA binding protein (SSB, BP), immobilized (Escherichia coli); conditions: BP 0.2 mg/ml on Immobilon membrane; 10-1000 pg DNA in 10 mg/ml BSA; 80% captured with BP at 1 mg/ml
[2] = test system: single-stranded DNA binding protein (SSB, BP), immobilized (Escherichia coli); conditions: BP 50 ug/ml adsorbed on nitrocellulose, BSA blocked; sample in 10 mg/ml BSA

## 32P-labeled single-stranded DNA
[1]
  binding signal: 70 % captured
[2]
  binding signal: 36 % captured
